B1: chimeric anti-PD-1 antibody 21G8F11 (antibody, V domains shown)
VH: EVQLLESGGGLAQPGGSLRLSCAASGFSFNTYLMHWVRQAPGKGLEWVSAISGGGGNTYYADSVKGRFTISRDNSKNTLYLQMNSLRAEDTAVYYCAKENRIPVAPFDYWGQGTLVTVSS
VL: DIQMTQSPSTLSASVGDRVTITCRASQSISTWLAWYQQKPGKAPKLLIYKASSLESGVPSRFSGSGSGTEFTLTISSLQPDDLATYYCQQYNSFSWTFGQGTKVEIK
B2: chimeric anti-PD-1 antibody 76G5B3 (antibody, V domains shown)
VH: QVQLVESGGGVVQPGRSLRLSCAASGFTFSDYGFHWVRQAPGKGLEWVAVIWYDGSNEYYTDSVKGRFTISRDNSKNTLYLQMNSLRAEDTAMYFCVVNPFDYWGQGTLVTVSS
VL: DIQMTQSPSSLSAFVGDRVTITCRASQGINHYLAWYQQKPGKAPNLLILAASTLLSGVPSRFGGRGSGTDFTLIISSLQPEDVATYYCQKYDSAPYTFGQGTKLEIK

Target: NC-Fc
Assay: ELISA, coated protein 1 ug/mL; antibody concentration not stated

Binder	OD450 nm
B1	0.161
B2	0.268

Source: patent publication US20180214548A1
